For test [1], the target named is T1, human CD3 (human, UniProt P07766 23-207; P04234 22-171).
T1 construct: As expressed on Jurkat cells or human T cells within the T cell receptor complex; also called hCD3
In words: FACS titration of Jurkat cells.

The target of test [2] is T1, human CD3. In words: FACS assays.

T1 sequence (P07766 23-207 limits assumed, chain 1 of 2): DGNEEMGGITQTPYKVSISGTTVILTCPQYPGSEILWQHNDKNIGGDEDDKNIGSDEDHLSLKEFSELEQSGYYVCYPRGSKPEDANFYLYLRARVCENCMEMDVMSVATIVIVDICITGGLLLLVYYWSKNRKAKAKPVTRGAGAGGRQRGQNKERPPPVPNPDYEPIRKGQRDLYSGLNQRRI
T1 sequence (P04234 22-171 limits assumed, chain 2 of 2): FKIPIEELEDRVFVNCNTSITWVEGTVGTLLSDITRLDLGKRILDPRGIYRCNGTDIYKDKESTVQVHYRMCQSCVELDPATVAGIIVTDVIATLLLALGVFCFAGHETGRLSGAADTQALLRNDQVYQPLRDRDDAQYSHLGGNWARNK

B1: CD3-VH-P (antibody, V domains shown)
VH: EVQLVESGGGLVQPGRSLRLSCVASGFTFDDYSMHWVRQAPGKGLEWVSGISWNSGSKDYADSVKGRFTISRDNAKNSLYLQMNSLRAEDTALYYCAKYGSGYGKFYHYGLDVWGQGTTVTVSS
VL: DIQMTQSPSSLSASVGDSVTITCRASQSINNYLNWYQQKPGKAPKLLIYTASSLLSGVPSRFSGSGSGTDFTLTISGLHPEDFATYFCQQSFSTPPITFGQGTRLDIK
notes: Anti-CD3 antibody from a genetically modified mouse
One may read the EC50 as the concentration giving half of the maximal effect. In the case of B1, the EC50 with human CD3 [1] fell in the range of 1 to 40 nM.

B2: CD3-VH-G (antibody, V domains shown)
VH: EVQLVESGGGLVQPGRSLRLSCAASGFTFDDYSMHWVRQAPGKGLEWVSGISWNSGSKGYADSVKGRFTISRDNAKNSLYLQMNSLRAEDTALYYCAKYGSGYGKFYHYGLDVWGQGTTVTVSS
VL: DIQMTQSPSSLSASVGDSVTITCRASQSINNYLNWYQQKPGKAPKLLIYTASSLLSGVPSRFSGSGSGTDFTLTISGLHPEDFATYFCQQSFSTPPITFGQGTRLDIK
notes: CD3-VH-P engineered to germline frameworks
On to B2, for which the binding result in the test with human CD3 [2] is recorded as “binds”.

The record behind these values is patent US20200376136A1 (Regeneron, published 2020).
